The text below walks through data of paper PMC6070450, “The tetraamine chelator outperforms HYNIC in a new technetium-99m-labelled somatostatin receptor 2 antagonist” (EJNMMI Research, 2018).

Where two headings read alike, the source gives them in different places. Some results are limits rather than exact numbers.

Series [1] addresses T1, sst4 (Homo sapiens, UniProt P31391).
T1 construct: expressed in transfected cells; host or cells: CCL39 cells (gift of Dr. D. Hoyer, Novartis)
The experiment in a line: Receptor autoradiography binding affinity, sst4. The settings on record: membrane pellet sections of sst4-expressing CCL39 cells; mean ± SEM, n ≥ 3. How it is done:
(§1) Cell membrane pellets were prepared from human sst1-expressing Chinese hamster ovary cells (kindly provided by Drs. T. Reisine and G. Singh, University of Pennsylvania, Philadelphia, Pa.); sst2-, sst3-, and sst4-expressing CCL39 cells (kindly provided by Dr. D. Hoyer, Novartis Pharma, Basel, Switzerland); and sst5-expressing human embryonic kidney 293 (HEK293) cells (kindly provided by Prof. Stefan Schulz, University of Jena, Germany) and stored at − 80 °C. Quantitative receptor autoradiography was performed on 20-μm-thick membrane pellet sections and quantitated as previously described.

Series [2] has as its target T2, sst1 (Homo sapiens, UniProt P30872).
T2 construct: expressed in transfected cells; host or cells: Chinese hamster ovary cells (gift of Drs. T. Reisine and G. Singh)
The experiment in a line: Receptor autoradiography binding affinity, sst1. The settings on record: membrane pellet sections of human sst1-expressing CHO cells; mean ± SEM, n ≥ 3. How it is done: as §1

Series [3] concerns the target T3, sst2 (Homo sapiens, UniProt P30874).
T3 construct: expressed in transfected cells; host or cells: CCL39 cells (gift of Dr. D. Hoyer, Novartis)
The experiment in a line: Receptor autoradiography binding affinity, sst2. The settings on record: membrane pellet sections of sst2-expressing CCL39 cells; mean ± SEM, n ≥ 3. The procedure:
as §1

The target in series [4] is T4, sst5 (Homo sapiens, UniProt P35346).
T4 construct: expressed in transfected cells; host or cells: HEK293 cells (gift of Prof. Stefan Schulz, University of Jena)
Briefly: Receptor autoradiography binding affinity, sst5. As to conditions: membrane pellet sections of sst5-expressing HEK293 cells; mean ± SEM, n ≥ 3. The procedure: as §1

For series [5], the target named is T5, sst3 (Homo sapiens, UniProt P32745).
T5 construct: expressed in transfected cells; host or cells: CCL39 cells (gift of Dr. D. Hoyer, Novartis)
Briefly: Receptor autoradiography binding affinity, sst3. The settings on record: membrane pellet sections of sst3-expressing CCL39 cells; mean ± SEM, n ≥ 3. The procedure:
as §1

The format of series [6] is physicochemical. The procedure:
The distribution coefficients (log D) were determined using the shake-flask method (see Additional file 1). […]
equivalents of DIPEA were used. The cleavage and deprotection of the peptide-chelator conjugates was accomplished by incubating for 1.5h in TFA:thioanisole:triisopropylsilane:H2O 95:2:2:1. The resin was then filtered and washed with the above mixture, after which the filtrate was evaporated and triturated with diethyl ether to give the crude product. This was purified by semi-preparative HPLC to obtain the corresponding chelator-peptide conjugate with purity ≥97%.
Radiolabeling of Chelator-Peptide Conjugates
177Lu-SS-03: 10 µg of SS-03 in 300 µL sodium acetate buffer (0.4 mol/L, pH 5.0) were […]
phosphate buffer pH 11.5 (50 μL) and 0.1 M sodium citrate (5 μL) followed by SS-04 solution (30 μg, 25 μL) and freshly prepared SnCl2 solution in ethanol (30 μg, 25 μL). […]
99mTc-SS-05: 30 µg SS05 was added to 1 mL aqueous edda/tricine solution (5 mg edda, 15 mg tricine). […] All radiolabeled peptides were analyzed with analytical HPLC. […]
Each radiopeptide was added to a presaturated 1/1mixture of PBS/n-octanol, at a concentration of 100 nmol/L. The mixtures were vigorously shaken for 10 min and then centrifuged. The activity concentrations of equal volume samples of both phases were measured in a γ-counter and the partition coefficient (LogD) was calculated. […]

A short description of series [7]: in vivo. Set-up: species or system mice. As to conditions: female, athymic nude, mouse, iv, 10 pmol, total radioactivity. The procedure: All animal experiments were conducted in compliance with Swiss animal protection laws and associated regulations. The protocol was approved by the Cantonal Veterinary Ethics Committee of the University of Basel (approval #789). Female athymic nude mice (4–6 weeks old) were injected subcutaneously (s.c.) in the right shoulder with 10^7 HEK293-rsst2 cells in 100 μL sterile PBS. The tumours were allowed to grow for 14–18 days (tumour weight 100–200 mg).
The mice were injected into the tail vein with 100 μL/10 pmol/0.37 MBq of ^177Lu-SS-03 or ^99mTc-SS-04 and were euthanised at 1, 4, and 24 h post-injection (p.i.). Organs of interest and blood were collected, rinsed of excess blood, blotted dry, weighed, and counted in a γ-counter. To determine nonspecific uptake, three animals were pre-injected with 20 nmol of the relevant unlabelled peptide in 0.9% NaCl solution (0.1 mL); after 5 min, the radiopeptide was injected and the percentage of injected activity per gram (%IA/g) was calculated for each tissue. The total counts injected per animal were determined by extrapolation from counts of an aliquot taken from the injected solution as a standard.

Series [8] deals with T3, sst2. As to conditions: mean ± SEM; cited from earlier work. The source says: Table 2 Binding affinities (IC50, nM) of chelator-peptide conjugates | column: IC50 (nM)* / sst2
Series [9] concerns the target T4, sst5. The settings on record: mean ± SEM; cited from earlier work. The source says:
Table 2 Binding affinities (IC50, nM) of chelator-peptide conjugates | column: IC50 (nM)* / sst5

Series [10] deals with T2, sst1. The settings on record: mean ± SEM; cited from earlier work. The source says:
Table 2 Binding affinities (IC50, nM) of chelator-peptide conjugates | column: IC50 (nM)* / sst1

Series [11] addresses T5, sst3. As to conditions: mean ± SEM; cited from earlier work. The source says: Table 2 Binding affinities (IC50, nM) of chelator-peptide conjugates | column: IC50 (nM)* / sst3
For series [12], the target named is T1, sst4. As to conditions: mean ± SEM; cited from earlier work. The source says:
Table 2 Binding affinities (IC50, nM) of chelator-peptide conjugates | column: IC50 (nM)* / sst4

T2 sequence (P30872 whole entry): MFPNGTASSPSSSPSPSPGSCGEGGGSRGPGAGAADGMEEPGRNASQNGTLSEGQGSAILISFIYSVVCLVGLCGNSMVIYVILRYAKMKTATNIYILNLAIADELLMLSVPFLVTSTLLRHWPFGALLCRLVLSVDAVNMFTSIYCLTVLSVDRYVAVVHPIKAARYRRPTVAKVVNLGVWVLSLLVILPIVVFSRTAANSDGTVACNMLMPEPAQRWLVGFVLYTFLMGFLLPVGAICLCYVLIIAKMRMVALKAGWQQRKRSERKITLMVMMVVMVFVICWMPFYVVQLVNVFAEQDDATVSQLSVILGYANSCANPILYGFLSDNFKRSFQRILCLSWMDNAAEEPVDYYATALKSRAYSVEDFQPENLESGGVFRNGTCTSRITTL
T1 sequence (P31391 whole entry): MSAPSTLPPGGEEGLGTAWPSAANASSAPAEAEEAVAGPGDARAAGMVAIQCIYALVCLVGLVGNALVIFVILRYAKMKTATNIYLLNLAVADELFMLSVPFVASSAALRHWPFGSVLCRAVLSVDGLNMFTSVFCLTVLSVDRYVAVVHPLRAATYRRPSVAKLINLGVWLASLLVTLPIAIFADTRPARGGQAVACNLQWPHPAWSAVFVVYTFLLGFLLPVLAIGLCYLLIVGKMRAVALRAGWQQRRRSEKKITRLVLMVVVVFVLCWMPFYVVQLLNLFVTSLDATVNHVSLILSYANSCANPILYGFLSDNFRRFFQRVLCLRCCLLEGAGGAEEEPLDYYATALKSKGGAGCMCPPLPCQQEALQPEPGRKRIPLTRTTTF
T3 sequence (P30874 whole entry): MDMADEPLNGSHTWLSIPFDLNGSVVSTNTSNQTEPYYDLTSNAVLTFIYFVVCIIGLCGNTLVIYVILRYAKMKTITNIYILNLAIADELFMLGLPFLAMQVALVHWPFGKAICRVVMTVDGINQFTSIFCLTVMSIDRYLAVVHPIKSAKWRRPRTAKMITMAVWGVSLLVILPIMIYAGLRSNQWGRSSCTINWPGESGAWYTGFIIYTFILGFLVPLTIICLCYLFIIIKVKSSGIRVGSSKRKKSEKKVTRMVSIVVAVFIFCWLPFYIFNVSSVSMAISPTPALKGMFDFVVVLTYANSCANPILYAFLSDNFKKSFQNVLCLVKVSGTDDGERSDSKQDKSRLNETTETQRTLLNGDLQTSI
T5 sequence (P32745 whole entry): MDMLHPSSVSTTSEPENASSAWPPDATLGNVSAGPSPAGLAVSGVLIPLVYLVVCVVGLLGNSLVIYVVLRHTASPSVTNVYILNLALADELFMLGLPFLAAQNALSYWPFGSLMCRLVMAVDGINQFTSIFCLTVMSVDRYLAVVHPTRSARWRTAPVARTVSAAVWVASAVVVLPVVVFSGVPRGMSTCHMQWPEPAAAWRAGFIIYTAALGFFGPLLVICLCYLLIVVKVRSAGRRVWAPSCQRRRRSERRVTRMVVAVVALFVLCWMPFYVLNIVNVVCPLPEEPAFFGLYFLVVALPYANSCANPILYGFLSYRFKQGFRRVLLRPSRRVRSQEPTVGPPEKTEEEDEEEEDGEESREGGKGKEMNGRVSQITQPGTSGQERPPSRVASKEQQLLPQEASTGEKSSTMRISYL
T4 sequence (P35346 whole entry): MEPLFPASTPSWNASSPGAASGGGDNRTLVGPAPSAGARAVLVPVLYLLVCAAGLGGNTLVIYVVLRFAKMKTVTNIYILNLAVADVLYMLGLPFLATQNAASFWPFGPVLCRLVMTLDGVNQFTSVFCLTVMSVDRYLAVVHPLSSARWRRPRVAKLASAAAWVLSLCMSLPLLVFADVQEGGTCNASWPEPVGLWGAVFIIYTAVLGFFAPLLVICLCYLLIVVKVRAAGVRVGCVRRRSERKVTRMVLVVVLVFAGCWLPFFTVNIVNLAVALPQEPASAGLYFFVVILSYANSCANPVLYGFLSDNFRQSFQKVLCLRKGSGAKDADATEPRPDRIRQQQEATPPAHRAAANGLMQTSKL

Take `C[C@@H](O)[C@@H]1NC(=O)[C@H](CCCCN)NC(=O)[C@@H](Cc2c[nH]c3ccccc23)NC(=O)[C@H](Cc2ccc(O)cc2)NC(=O)[C@H](NC(=O)[C@H](Cc2ccc(Cl)cc2)NC(=O)CN2CCN(CC(=O)O)CCN(CC(=O)O)CCN(CC(=O)O)CC2)CSSC[C@@H](C(=O)N[C@H](Cc2ccc(O)cc2)C(N)=O)NC1=O` [SS-03, DOTA-(4-Cl)-Phe-Cyclo(D-Cys-Tyr-D-Trp-Lys-Thr-Cys)-D-Tyr-NH2]: the IC50 in series [1] was 404 ± 92 nM; in series [2] it was above 1000 nM; in [3], 1.7 ± 0.06 nM; in series [4], 564 ± 174 nM; in series [5] it was above 1000 nM.

For `C[C@@H](O)[C@@H]1NC(=O)[C@H](CCCCN)NC(=O)[C@@H](Cc2c[nH]c3ccccc23)NC(=O)[C@H](Cc2ccc(O)cc2)NC(=O)[C@H](NC(=O)[C@H](Cc2ccc(Cl)cc2)NC(=O)C(CNCCN)CNCCN)CSSC[C@@H](C(=O)N[C@H](Cc2ccc(O)cc2)C(N)=O)NC1=O` [SS-04, N4-(4-Cl)-Phe-Cyclo(D-Cys-Tyr-D-Trp-Lys-Thr-Cys)-D-Tyr-NH2], the IC50 in series [1] was 171 ± 35 nM; in series [2], above 1000 nM; in series [3] it was 5.3 ± 0.17 nM; in [4], 228 ± 73 nM; in [5], 720 ± 74 nM.

As to `C[C@@H](O)[C@@H]1NC(=O)[C@H](CCCCN)NC(=O)[C@@H](Cc2c[nH]c3ccccc23)NC(=O)[C@H](Cc2ccc(O)cc2)NC(=O)[C@H](NC(=O)[C@H](Cc2ccc(Cl)cc2)NC(=O)c2ccc(NN)nc2)CSSC[C@@H](C(=O)N[C@H](Cc2ccc(O)cc2)C(N)=O)NC1=O` [^99mTc-SS-05, metal not drawn], the “log D” value in series [6] is recorded as “− 2.03 ± 0.27”.

With `C[C@@H](O)[C@@H]1NC(=O)[C@H](CCCCN)NC(=O)[C@@H](Cc2c[nH]c3ccccc23)NC(=O)[C@H](Cc2ccc(O)cc2)NC(=O)[C@H](NC(=O)[C@H](Cc2ccc(Cl)cc2)NC(=O)CN2CCN(CC(=O)O)CCN(CC(=O)O)CCN(CC(=O)O)CC2)CSSC[C@@H](C(=O)N[C@H](Cc2ccc(O)cc2)C(N)=O)NC1=O` [^177Lu-SS-03, metal not drawn], the tissue uptake at 1 h in series [7] (Adrenal uptake) was 3.7 ± 0.63 %ID/g; in series [7] (Blood uptake) it was 0.57 ± 0.04 %ID/g; in series [7] (Bone uptake), 4.11 ± 0.53 %ID/g; in [7] (Heart uptake), 0.69 ± 0.12 %ID/g; in series [7] (Intestine uptake), 3.13 ± 1.16 %ID/g; in series [7] (Kidney uptake), 15.2 ± 1.86 %ID/g. In addition, the tissue uptake at 1 h was 3 ± 0.66 %ID/g in series [7] (Liver uptake); 13.2 ± 4.49 %ID/g in series [7] (Lung uptake); 0.22 ± 0.06 %ID/g in series [7] (Muscle uptake); 72.6 ± 13.8 %ID/g in [7] (Pancreas uptake); 1.51 ± 0.19 %ID/g in series [7] (Spleen uptake); 48.7 ± 13.1 %ID/g in series [7] (Stomach uptake). The tissue uptake at 1 h in series [7] (Tumour uptake) was 23.6 ± 1.28 %ID/g. The tissue uptake at 4 h in series [7] (Adrenal uptake) amounted to 2.9 ± 0.46 %ID/g; in series [7] (Blood uptake) it was 0.21 ± 0.04 %ID/g; in series [7] (Bone uptake) it was 2.77 ± 1.06 %ID/g; in series [7] (Heart uptake), 0.38 ± 0.07 %ID/g; in series [7] (Intestine uptake) it was 2.28 ± 0.31 %ID/g; in series [7] (Kidney uptake) it was 17 ± 1.81 %ID/g. Besides, the tissue uptake at 4 h in series [7] (Liver uptake) was 1.75 ± 0.22 %ID/g; in [7] (Lung uptake), 6.71 ± 1.37 %ID/g; in [7] (Muscle uptake), 0.12 ± 0.02 %ID/g; in [7] (Pancreas uptake), 54.5 ± 7.28 %ID/g; in series [7] (Spleen uptake), 1.42 ± 0.77 %ID/g; in series [7] (Stomach uptake), 30.2 ± 4.25 %ID/g. Besides, the tissue uptake at 4 h in [7] (Tumour uptake) is 31.7 ± 4 %ID/g. The tissue uptake at 24 h was 1.16 ± 0.46 %ID/g in [7] (Adrenal uptake); below 0.1 %ID/g in [7] (Blood uptake); 1.25 ± 0.16 %ID/g in series [7] (Bone uptake); 0.11 ± 0.04 %ID/g in [7] (Heart uptake); 0.27 ± 0.06 %ID/g in [7] (Intestine uptake); 7.35 ± 1.66 %ID/g in series [7] (Kidney uptake). Further, the tissue uptake at 24 h is 0.47 ± 0.07 %ID/g in [7] (Liver uptake); 0.74 ± 0.22 %ID/g in series [7] (Lung uptake); 0.07 ± 0.02 %ID/g in [7] (Muscle uptake); 3.03 ± 0.62 %ID/g in [7] (Pancreas uptake); 0.33 ± 0.06 %ID/g in [7] (Spleen uptake); 6.02 ± 1.4 %ID/g in [7] (Stomach uptake). For the same compound, the tissue uptake at 24 h in [7] (Tumour uptake) worked out at 26.3 ± 4.42 %ID/g. For the same compound, the tissue to tissue ratio at 1 h in series [7] (Tumour/blood ratio) came to 41.3; in series [7] (Tumour/bone ratio), 5.7; in series [7] (Tumour/kidney ratio) it was 1.56; in [7] (Tumour/liver ratio), 7.9; in series [7] (Tumour/muscles ratio) it was 110. Also, the tissue to tissue ratio at 4 h is 150 in [7] (Tumour/blood ratio); 11.5 in series [7] (Tumour/bone ratio); 1.86 in [7] (Tumour/kidney ratio); 18.1 in series [7] (Tumour/liver ratio); 259 in series [7] (Tumour/muscles ratio). Also, the tissue to tissue ratio at 24 h was 361 in series [7] (Tumour/blood ratio); 21.1 in series [7] (Tumour/bone ratio); 3.58 in series [7] (Tumour/kidney ratio); 55.8 in series [7] (Tumour/liver ratio); 372 in series [7] (Tumour/muscles ratio). Also, the “log D” value in series [6] is “− 2.35 ± 0.22”.

Turning to “DOTA-pNO2Phe-cyclo[D-Cys-Tyr-D-Trp-Lys-Thr-Cys]-D-Tyr-NH2 (disulfide) [DOTA-sst2-ANT]”, the IC50 was 1.5 ± 0.4 nM in [8]; above 1000 nM in series [9]; above 1000 nM in series [10]; above 1000 nM in series [11]; 287 ± 27 nM in series [12].
